Results as given in patent publication US20250304636A1 (H LEE MOFFITT CANCER CENTER AND RESEARCH INSTITUTE, published 2025).

Biological target: T1, Syk (UniProt P43405 1-635, limits assumed)
T1 construct: also called Syk kinase; pcDNA3-Syk
Experiment: co-immunoprecipitation from co-transfected AD293 cells
Description: AD293 cells (a cell line derived from HEK293 with improved cell adherence and plaque formation, Agilent) were washed with Dulbecco's PBS (DPBS), and resuspended in 2.0 μg/ml of anti-human TREM-1 antibody (R&D Systems) on ice for 30 min. After washing with DPBS, cells were incubated with 1.0 μg/ml of Affinipure rabbit anti-mouse IgG (H+L) Ab (Jackson Immunoresearch) at 37° C. for 10 min. Cells were then scraped off the plates and followed by centrifugation at 400 g for 10 minutes at 4° C. Cells were washed twice with cold 1×DPBS and lysed on ice for 30 min at 4° C. in 1 ml of lysis buffer (1% NP-40, 10 mM Tris, 150 mM NaCl, 0.5 mM phenylmethylsulfonyl fluoride, 10 mM iodoacetamide, 50 mM NaF, 1 mM ethylenediamenetetraacetic acid, 1 mM sodium orthovanadate, 0.25% sodium Deoxycholate, 10 μl Ala-Ala-Phe p-nitroanilide (SIGMA), 10 μl protease cocktail I (SIGMA cat #P2850) and 10 μl protease cocktail II (SIGMA cat #P5726). Cell lysates were centrifuged at 12,000 g at 4° C. for 15 minutes to remove nuclei and cell debris, after which the clarified lysate supernatant was isolated. The protein concentration of the soluble extracts was determined using the Bradford protein assay (Bio-Rad, Hercules, CA, USA) following manufacturer protocol. Western blots were blocked in PBST containing 4% BSA for 1 h and then incubated overnight at 4° C. in primary antibodies. […]

- binding result: no binding
B1: wild-type DAP12 (12-kilodalton DNAX activating protein) (other)
chain: IALAVYFLGRLVPRGRGAAEAATRKQRITETESPYQELQGQRSDVYSDLNTQRPYYK
notes: Over-expressed from pcDNA3 in AD293 cells together with pcDNA3-Syk; co-immunoprecipitated from cell lysates; No signal peptide limits are stated; also called WT DAP12; WT
